Experimental data as given in PMC9565799 (2022).

B1: TcpB (minor pilin, N-terminally truncated, first 28 residues excluded) (natural protein)
chain: GGELMIKSSNAFDVIELSSQIQRYASLSKINNRTNPILKDNKAKEFKDADLKWLKLENCPTAGDVPTTGNNNDLQDQFIACDADYRKGDLSYFGSQFEFSTYVHPSNPEIQRQIKQVVSYFQYRGMERAFIGDAAGYVISEAKKKGFSAQDYRIVLIEPDRVGYFESNAISYEEFIENPSARENFLLKATKDRTLALAVSLAQTGEIAMQRDGSVAFLEDSELCWDTAAGSAKSCLSVRYDTVGNKTELDLKQIDVVSAKGLSFESDGKTKTPVVSTYETFQDGGRAKTINAIECPTGLNNRFAAVVSSFSTAGQNANFSSESAKDSQGTTQKDGSKGPHALLSGISLNWTLTNKVWDVTASIGIESGILPTSGIDSGSLLRNPKSLSFIAFQWCEN

Tests used:
Test in all cases: ITC
TcpF (1–10) peptide = TcpF (1–10) peptide (Vibrio cholerae, UniProt P0C6Q5 21-30)
TcpF (1–20) peptide = TcpF (1–20) peptide (Vibrio cholerae, UniProt P0C6Q5 21-40)
[1] = target: B1

Binder	Kd (TcpF (1–10) peptide) [nM]	Kd (TcpF (1–20) peptide) [nM]	Kd [1] [nM]
B1	506000	1700	
FNDNYSSTSTVYATS [TcpF (1–15) peptide]			3000
